Data on 125 sequences can be found in the supplement of paper PMC9112550, “Optimization of the antimicrobial peptide Bac7 by deep mutational scanning” (BMC Biology, 2022).

This data set concerns Escherichia coli TOP10. Briefly: shrunken log2 fold change of peptide-encoding DNA abundance (4.5 h post-induction vs induction); higher = less antimicrobial activity (less host growth inhibition). Conditions: time post-induction: 4.5 h; library: site-saturation at positions 5, 18, 19, 20.
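Note: peptides expressed intracellularly from a pBAD plasmid library in pooled LB shake-flask culture, induced with 0.3% L-arabinose, DNA abundance read by NGS, three biological replicates, DESeq2 with apeglm shrinkage.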

Take RRIRDRPPRLPRPRPRPPSHPRP: the “shrunken log2 fold change” value was -0.203.
With RRIRKRPPRLPRPRPRPFGGPRP, the “shrunken log2 fold change” value was -0.043.
In the case of RRIRQRPPRLPRPRPRPFWSPRP it was -0.00402.
As to RRIRARPPRLPRPRPRPNTHPRP, the “shrunken log2 fold change” value is -0.309.
Consider RRIRIRPPRLPRPRPRPYIPPRP, for which the “shrunken log2 fold change” value is -0.92.
With RRIRQRPPRLPRPRPRPIFNPRP, the “shrunken log2 fold change” value is -0.365.
In the case of RRIRIRPPRLPRPRPRPPQAPRP, the “shrunken log2 fold change” value came to 0.639.
Turning to RRIRNRPPRLPRPRPRPVPWPRP, the “shrunken log2 fold change” value worked out at 0.23.
As to RRIRFRPPRLPRPRPRPLQLPRP, the “shrunken log2 fold change” value is -0.51.
Regarding RRIRLRPPRLPRPRPRPHLRPRP, the “shrunken log2 fold change” value is -0.151.
As to RRIRNRPPRLPRPRPRPLRMPRP, the “shrunken log2 fold change” value came out at 0.361.
In the case of RRIRDRPPRLPRPRPRPINTPRP it was -0.115.
As to RRIRNRPPRLPRPRPRPTKLPRP, the “shrunken log2 fold change” value stood at 0.0886.
For RRIRRRPPRLPRPRPRPMNEPRP the value was -0.0251.
In the case of RRIRVRPPRLPRPRPRPADQPRP it was 0.0278; in that of RRIRERPPRLPRPRPRPFHWPRP, -0.0575; in that of RRIRKRPPRLPRPRPRPTACPRP, 0.108.
On to RRIRFRPPRLPRPRPRPYSWPRP, for which the “shrunken log2 fold change” value was -0.159.
On to RRIRNRPPRLPRPRPRPIAAPRP, for which the “shrunken log2 fold change” value came out at 0.147.
For RRIRTRPPRLPRPRPRPFMGPRP the value was -0.0574; for RRIRFRPPRLPRPRPRPFPGPRP, -0.00776.
With RRIRPRPPRLPRPRPRPHPPPRP, the “shrunken log2 fold change” value stood at 0.397.
In the case of RRIRLRPPRLPRPRPRPCNCPRP it was 0.045.
In the case of RRIRYRPPRLPRPRPRPTLYPRP it was -0.828.
In the case of RRIRLRPPRLPRPRPRPHVAPRP it was 0.0259; in that of RRIRRRPPRLPRPRPRPDCTPRP, 0.252.
For RRIRYRPPRLPRPRPRPITMPRP, the “shrunken log2 fold change” value is -1.13.
Consider RRIRKRPPRLPRPRPRPMNMPRP, for which the “shrunken log2 fold change” value is -0.0791.
With RRIRIRPPRLPRPRPRPSHAPRP, the “shrunken log2 fold change” value is -0.283.
In the case of RRIRERPPRLPRPRPRPICHPRP it was -0.187; in that of RRIRKRPPRLPRPRPRPCTAPRP, 0.383; in that of RRIRTRPPRLPRPRPRPGGRPRP, 0.384.
In the case of RRIRIRPPRLPRPRPRPFTYPRP it was -0.00992.
On to RRIRWRPPRLPRPRPRPYHHPRP, for which the “shrunken log2 fold change” value is -1.02.
In the case of RRIRERPPRLPRPRPRPNPFPRP, the “shrunken log2 fold change” value stood at 0.0226.
Consider RRIRLRPPRLPRPRPRPDDCPRP, for which the “shrunken log2 fold change” value is 0.014.
Regarding RRIRGRPPRLPRPRPRPIAMPRP, the “shrunken log2 fold change” value turned out to be 0.401.
As to RRIRSRPPRLPRPRPRPQICPRP, the “shrunken log2 fold change” value is -0.0872.
In the case of RRIRKRPPRLPRPRPRPMCCPRP it was -0.178.
Turning to RRIRWRPPRLPRPRPRPNFSPRP, the “shrunken log2 fold change” value was -0.305.
For RRIRHRPPRLPRPRPRPTGMPRP the value was 0.156; for RRIRERPPRLPRPRPRPDEEPRP, -0.142; for RRIRYRPPRLPRPRPRPRDQPRP, -0.0852.
For RRIRLRPPRLPRPRPRPACGPRP the value was 0.412.
In the case of RRIRMRPPRLPRPRPRPERYPRP, the “shrunken log2 fold change” value was 0.362.
In the case of RRIRERPPRLPRPRPRPYHDPRP, the “shrunken log2 fold change” value is -0.114.
For RRIRERPPRLPRPRPRPHKKPRP the value was 0.0621; for RRIRYRPPRLPRPRPRPQTMPRP, -0.23; for RRIRQRPPRLPRPRPRPEPCPRP, -0.0944.
On to RRIRARPPRLPRPRPRPGILPRP, for which the “shrunken log2 fold change” value came to 0.287.
Take RRIRLRPPRLPRPRPRPPQNPRP: the “shrunken log2 fold change” value stood at 1.26.
In the case of RRIRVRPPRLPRPRPRPIDRPRP, the “shrunken log2 fold change” value was -0.0529.
In the case of RRIRERPPRLPRPRPRPYQHPRP it was -0.106; in that of RRIRCRPPRLPRPRPRPTGMPRP, -0.013; in that of RRIRSRPPRLPRPRPRPEAKPRP, 0.401.
For RRIRGRPPRLPRPRPRPWSWPRP the value was 1.1.
Consider RRIRLRPPRLPRPRPRPSASPRP, for which the “shrunken log2 fold change” value is 0.0218.
In the case of RRIRIRPPRLPRPRPRPEPQPRP it was -0.0904; in that of RRIRWRPPRLPRPRPRPLGNPRP, -0.14; in that of RRIRNRPPRLPRPRPRPIFDPRP, -0.201.
In the case of RRIRCRPPRLPRPRPRPECEPRP it was 0.757; in that of RRIRMRPPRLPRPRPRPLCAPRP, 1.24; in that of RRIRSRPPRLPRPRPRPLDVPRP, -0.21.
On to RRIRHRPPRLPRPRPRPVWLPRP, for which the “shrunken log2 fold change” value was -0.0368.
Consider RRIRSRPPRLPRPRPRPNCNPRP, for which the “shrunken log2 fold change” value is -0.473.
For RRIRLRPPRLPRPRPRPHWDPRP the value was 0.176; for RRIRWRPPRLPRPRPRPVYFPRP, -0.418.
As to RRIRLRPPRLPRPRPRPLTEPRP, the “shrunken log2 fold change” value was 0.098.
For RRIRERPPRLPRPRPRPYIRPRP the value was -1.16; for RRIRFRPPRLPRPRPRPQQSPRP, -0.0219; for RRIRARPPRLPRPRPRPGAQPRP, 0.92.
For RRIRNRPPRLPRPRPRPARPPRP the value was 2.86; for RRIRMRPPRLPRPRPRPNFCPRP, 0.0533; for RRIRKRPPRLPRPRPRPMCAPRP, 0.583.
In the case of RRIRYRPPRLPRPRPRPMALPRP it was -0.142; in that of RRIRARPPRLPRPRPRPVTEPRP, 0.154; in that of RRIRKRPPRLPRPRPRPEEIPRP, 0.00253.
Consider RRIRVRPPRLPRPRPRPAMGPRP, for which the “shrunken log2 fold change” value came to 0.34.
In the case of RRIRWRPPRLPRPRPRPSEGPRP it was 0.0528; in that of RRIRERPPRLPRPRPRPDWEPRP, 0.368; in that of RRIRHRPPRLPRPRPRPMRCPRP, 0.309.
For RRIRERPPRLPRPRPRPINWPRP the value was -0.169; for RRIRGRPPRLPRPRPRPFNHPRP, -0.357.
For RRIRQRPPRLPRPRPRPEIIPRP the value was 0.0359; for RRIRWRPPRLPRPRPRPQHCPRP, -0.115.
Consider RRIRNRPPRLPRPRPRPNIHPRP, for which the “shrunken log2 fold change” value was -0.457.
In the case of RRIRRRPPRLPRPRPRPEDQPRP it was 0.196.
For RRIRNRPPRLPRPRPRPHYTPRP the value was -0.0895; for RRIRCRPPRLPRPRPRPMFMPRP, -0.246.
In the case of RRIRMRPPRLPRPRPRPVVLPRP it was 0.272; in that of RRIRMRPPRLPRPRPRPPTHPRP, 0.696.
On to RRIRNRPPRLPRPRPRPLRCPRP, for which the “shrunken log2 fold change” value was 0.0876.
For RRIRVRPPRLPRPRPRPMVSPRP the value was -0.188; for RRIRPRPPRLPRPRPRPPIHPRP, -0.039.
RRIRHRPPRLPRPRPRPMFFPRP: the “shrunken log2 fold change” value was -0.347.
Turning to RRIRMRPPRLPRPRPRPHHNPRP, the “shrunken log2 fold change” value was -0.533.
Consider RRIRFRPPRLPRPRPRPNSPPRP, for which the “shrunken log2 fold change” value is -0.462.
For RRIRKRPPRLPRPRPRPQSPPRP the value was 0.18; for RRIRKRPPRLPRPRPRPICCPRP, 0.583; for RRIRGRPPRLPRPRPRPYEKPRP, -0.0149.
In the case of RRIRGRPPRLPRPRPRPWQKPRP it was 0.09; in that of RRIRARPPRLPRPRPRPVRFPRP, 0.828.
In the case of RRIRDRPPRLPRPRPRPLMWPRP it was 2.47; in that of RRIRTRPPRLPRPRPRPWAQPRP, 0.0456; in that of RRIRLRPPRLPRPRPRPLAEPRP, 0.289.
In the case of RRIRQRPPRLPRPRPRPIAMPRP, the “shrunken log2 fold change” value was -0.0149.
Regarding RRIRNRPPRLPRPRPRPKGCPRP, the “shrunken log2 fold change” value was -0.0382.
In the case of RRIRNRPPRLPRPRPRPNIYPRP it was -0.42; in that of RRIRCRPPRLPRPRPRPNIPPRP, -0.822; in that of RRIRYRPPRLPRPRPRPGLMPRP, -0.103.
Take RRIRFRPPRLPRPRPRPACVPRP: the “shrunken log2 fold change” value is -0.0826.
In the case of RRIRRRPPRLPRPRPRPVVVPRP it was 0.186; in that of RRIRVRPPRLPRPRPRPSTWPRP, -0.184; in that of RRIRDRPPRLPRPRPRPPMSPRP, 0.137.
With RRIRARPPRLPRPRPRPGEHPRP, the “shrunken log2 fold change” value is 0.351.
RRIRARPPRLPRPRPRPCCLPRP: the “shrunken log2 fold change” value turned out to be 0.0817.
Regarding RRIRHRPPRLPRPRPRPICKPRP, the “shrunken log2 fold change” value is -0.204.
In the case of RRIRSRPPRLPRPRPRPLWWPRP it was 0.35.
For RRIRVRPPRLPRPRPRPWCVPRP the value was -0.504; for RRIRSRPPRLPRPRPRPVVAPRP, 0.608; for RRIRLRPPRLPRPRPRPKHHPRP, -0.296.
In the case of RRIRDRPPRLPRPRPRPEVSPRP it was 0.3.
Consider RRIRSRPPRLPRPRPRPPCHPRP, for which the “shrunken log2 fold change” value is -0.0302.
As to RRIRDRPPRLPRPRPRPLNCPRP, the “shrunken log2 fold change” value is -0.0225.
For RRIRARPPRLPRPRPRPSGGPRP the value was 0.115.
